Starred links: 1 amine or outer side, 2 acyl side, 3 side chain; linkers in the order of their positions; H or OH if unused. Positions of bridges follow the written chain, without caps; N, C: chain ends. Non-standard residues stand in square brackets, D forms with d. No end group written: not given here. mClBz = N-terminal chlorobenzyl thioether anchor (M*) that cyclises onto the Cys, the meta form of the mClBz/pClBz pair, O=C(c1cccc(C[*:3])c1)[*:2]; code ∗ = not defined here

Among the data in patent US12084523 (TECHNION RESEARCH AND DEVELOPMENT FOUNDATION, dated 2024) are Kd, kon and koff values, retold here.

Test [1] has as its target T1, biotin-^K48Ub2 (chemically synthesized K48-linked di-ubiquitin, biotin on the distal Ub) (UniProt P0CG48 1-76, isopeptide bond from the C-terminus of the distal Ub to Lys48 of the proximal Ub; biotin at the N-terminus of the distal Ub).
T1 construct: mature; also called Lys48-linked ubiquitin dimer
Description: SPR (Biacore T100), biotin-Ub chain on the chip, peptide in flow; error 28. For orientation: In SPR one partner is held on a chip, and binding of the other changes the refractive index at the surface.

The target in test [2] is T1, biotin-^K48Ub2 (chemically synthesized …). Description: SPR, K48-Ub2.
Test [3] addresses T2, biotin-^K48Ub4 (chemically synthesized K48-linked tetra-ubiquitin, biotin on the distal Ub) (UniProt P0CG48 1-76, isopeptide bonds from the C-terminus of each Ub to Lys48 of the next Ub; biotin at the N-terminus of the distal Ub).
T2 construct: mature; also called Ub tetramer
Description: SPR (Biacore T100), biotin-Ub chain on the chip, peptide in flow; error 7.

Test [4] deals with T1, biotin-^K48Ub2 (chemically synthesized …). Description: SPR, K48-Ub2. The source holds these as a separate data set.
In test [5] the target is T2, biotin-^K48Ub4 (chemically synthesized …). Description: SPR (Biacore T100), biotin-Ub chain on the chip, peptide in flow; error 7.30E+05.
For test [6] the target is unchanged. Description: SPR (Biacore T100), biotin-Ub chain on the chip, peptide in flow; error 0.002.
Test [7] concerns the target T1, biotin-^K48Ub2 (chemically synthesized …). Description: SPR, K48-Ub2; mClBz anchor; wildtype J08, no mutations.
For test [8], the target named is T2, biotin-^K48Ub4 (chemically synthesized …). Description: SPR (Biacore T100), biotin-Ub chain on the chip, peptide in flow; error 4.
The target of test [9] is T1, biotin-^K48Ub2 (chemically synthesized …). Description: SPR (Biacore T100), biotin-Ub chain on the chip, peptide in flow; error 8.

B1: Ub4i cyclic peptide (peptide)
peptide: WGWFDDLYLFVAYCG
modifications: position 1 is ClAc-D-Trp (M* of Table 2); macrocycle closed between the N-terminal chloroacetyl group and the Cys
notes: also called U4i
As for B1, the Kd (in general, the equilibrium constant for the complex coming apart) in test [1] turned out to be 91 nM; in test [2], 90 nM; in test [3], 26 nM; in test [4], 90 nM.

Consider {code ∗}-[dW]LYLDDSGDWWICG (thioether N-13 (inferred); reading uncertain; also: printed as *WLYLDDSGDWWICG, also called U4ix; Ub4xi) [Ub4ix cyclic peptide], for which the kon (in general, the second-order rate constant of association) in test [5] turned out to be 3.52e+06 M⁻¹ s⁻¹. In [6], the koff (in general, the first-order rate constant of dissociation) is 0.021 s⁻¹.

As to mClBz-GWFDDLYLFVAYCG (bridge N-13; not fully specified (bridges), also called J08 (M* = mClBz)) [J08_mClBz], the Kd in test [7] and in test [2] was 10 nM throughout.

For the molecule mClBz-GWFDDEYLFVAYCG (bridge N-13; not fully specified (bridges)) [J08_mClBz_L6E], the Kd in [2] and in [4] was 5 nM each time.

B2: Ub2ii cyclic peptide (peptide)
peptide: WWYDREYYYLGYGCG
modifications: position 1 is ClAc-D-Trp (M* of Table 2); macrocycle closed between the N-terminal chloroacetyl group and the Cys
notes: also called U2ii
For the molecule B2, the results for the dissociation constant Kd in test [2], in test [8] and in [9] were 33 nM, 14 nM and 33 nM, respectively.

In turn, {CH2CO}-[dW]GWFDNLYWYVTHCG (thioether N-14, also called U2i) [Ub2i cyclic peptide] gave a Kd in [8] of 14 nM.
